Results as given in publication PMC3477312, “Characterization of Vibrio cholerae Hfq Provides Novel Insights into the Role of the Hfq C-Terminal Region” (Journal of Molecular Biology, 2012).

What was measured:
[1] = biological target: VcNTDEcCTR (Vibrio cholerae | Escherichia coli) (UniProt Q9KV11); assay: SDS-PAGE stability assay; 1 ug protein in loading buffer with 1% SDS heated at 95 °C for 0 to 300 s, 10% SDS-PAGE, hexamer and monomer bands quantified; hexamer to monomers
[2] = biological target: the molecule itself; assay: as above
SEC = biological target: the molecule itself; assay: SEC

Row | Molecule | half-life of hexamer in 1% SDS at 95 °C [1] [s] | half-life of hexamer in 1% SDS at 95 °C [2] [s] | stoichiometry N (SEC)
1 | VcNTDEcCTR (from UniProt Q9KV11 1-72; P0A6X3 73-102) | 39.2 | – | –
2 | VcHfq72 (domain or fragment, also called VcHfq NTD; NTD alone of VcHfq) MAKGQSLQDPFLNALRRERIPVSIYLVNGIKLQGQIESFDQFVILLKNTVNQMVYKHAISTVVPARPVSHHS | – | 32.1 ± 1.9 | –
3 | Vibrio cholerae Hfq (natural protein, also called VcHfq; full-length VcHfq) MAKGQSLQDPFLNALRRERIPVSIYLVNGIKLQGQIESFDQFVILLKNTVNQMVYKHAISTVVPARPVSHHSGDRPASDRPAEKSEE | – | 33.2 ± 1.3 | 6
